Results on 6 molecules are retold here after patent US20230203162A1 (NUMAB THERAPEUTICS, published 2023).

The target in test [1] is T1, plasma-membranous human MSLN on cell lines (H226, HPAC, H292, OVCAR-3, MeT-5A) (human, UniProt Q13421 296-598).
T1 construct: whole, on cells; also called human MSLN on H226 cells; mesothelin on target cells
Description: cELISA on H226 cells, HRP-Protein L.

Test [2] addresses T2, recombinant human MSLN (purchased from Peprotech) (human, UniProt Q13421 296-598, limits assumed).
T2 construct: Bought protein; also called recombinant human mesothelin
The test can be described thus: SPR, MSLN immobilized on CM5, scFv as analyte, 1:1 Langmuir. (In general: Surface plasmon resonance follows binding to a sensor surface in real time, without labels.)

Test [3] concerns the target biotinylated MSLN (human MSLN in the MSLN/MUC16 competition ELISA) (human, UniProt Q13421 296-598, limits assumed, biotinylated). Description: competition ELISA, scFv titrated with biotinylated MSLN; competitor coated MUC16. (In an ELISA, binding on a coated surface is turned into a signal by an enzyme label.)
In test [4] the target is T1, plasma-membranous human MSLN on cell …. The test can be described thus: cell-based or functional assay.
For test [5], the target named is soluble mesothelin (sMSLN). The test can be described thus: cell-based or functional assay.
Test [6] has as its target T3, human recombinant CD3ε protein (Sino Biological) (human, UniProt P07766 23-126).
T3 construct: Bought protein; also called recombinant human CD3ε; human CD3ε
The test can be described thus: SPR, CD3ε amine-coupled to CM5, antibody injected.

Test [7] addresses T1, plasma-membranous human MSLN on cell …. The test can be described thus: flow cytometry on H226 cells, protein L-PE, 4PL fit. For orientation: Flow cytometry measures light scatter and fluorescence of single cells or particles in a stream.
Test [8] shares this target. Description: flow cytometry on Met-5A cells, protein L-PE, 4PL fit.
Test [9] shares this target. Description: flow cytometry on OVCAR-3 cells, protein L-PE, 4PL fit.
In test [10] the target is human serum albumin (hSA, Sigma-Aldrich A3782) (human, UniProt P02768 25-609). Description: SPR, hSA amine-coupled to CM5, antibody injected, pH 5.5, 1:1 Langmuir.
In test [11] the target is T2, recombinant human MSLN (purchased from …). Description: SPR (Biacore T200), human MSLN; which of the two formats (MSLN immobilized / antibody captured) not given.

B1: anti-MSLN scFv PRO1922 (scFv)
scFv: DIQMTQSPSSLSASVGDRVTITCQASESIYSSLAWYQQKPGKAPKLLIYLASTLASGVPSRFSGSGSGTDFTLTISSLQPEDFATYYCQSTDYTTSTHRNSFGTGTKVTVLGGGGGSGGGGSGGGGSGGGGSEVQLVESGGGLVQPGGSLRLSCAASGFSFSTTYYMCWVRQAPGKGLEWIGCTNTASSVRTYYATWAKGRFTISRDNSKNTVYLQMNSLRAEDTAVYYCARDMGFADYALNLWGQGTLVTVSS
notes: also called 54-21-H03-sc01
As for B1, in [1], the EC50 – broadly, the concentration giving half of the maximal effect – was found to be 0.29 nM; the “rel. EC50 (EC50, Amatuximab/EC50, scFv)” value was 0.52 ratio; the “rel. Maximum binding (OD450-690 nm, scFv/OD450-690 nm, Amatuximab)” value (“rel. Maximum binding” for short) came to 0.61 ratio. Further, in test [2], the dissociation constant (Kd) (commonly a measure of binding affinity in units of concentration) turned out to be 0.177 nM; the off-rate (koff) (as a rule, the first-order rate constant of dissociation) turned out to be 0.00013 s⁻¹; the kon (in general, a measure of how fast the partners come together) was 735000 M⁻¹ s⁻¹. For the same molecule, in test [3], the concentration for half-maximal inhibition (IC50) (as a rule, the concentration that gives 50% inhibition) came out at 0.05 nM; the “Maximum inhibition at highest sample conc.” value came to 99.3%; the “rel. IC50 (IC50, Amatuximab/IC50, scFv)” value worked out at 0.29 ratio.

B2: PRO2660 (MATCH4) (other)
chain 1: DIQMTQSPSSLSASVGDRVTITCQASESIYSSLAWYQQKPGKAPKLLIYLASTLASGVPSRFSGSGSGTDFTLTISSLQPEDFATYYCQSTDYTTSTHRNSFGTGTKVTVLGGGGGSGGGGSGGGGSGGGGSEVQLVESGGGLVQPGGSLRLSCAASGFSFSTTYYMCWVRQAPGKGLEWIGCTNTASSVRTYYATWAKGRFTISRDNSKNTVYLQMNSLRAEDTAVYYCARDMGFADYALNLWGQGTLVTVSSGGGGSGGGGSEVQLVESGGGLVQPGGSLRLSCAASGFSLSSYDMSWVRQAPGKGLAWIGASYASGPTYYASWAKGRFTISRDNSKNTVYLQMNSLRAEDTATYFCARGGWTGTSHSNIWGQGTLVTVSSGGGSGGGSGGGSGEVQLVESGGGLVQPGGSLRLSCAASGFSLSSYAMNWVRQAPGKCLEWIGHINAGDIAYYATWAKGRFTISRDNSKNTVYLQMNSLRAEDTAVYFCARGAGGFSTGPFKLWGQGTLVTVSS
chain 2: DIQMTQSPSSLSASVGDRVTITCQASESIYSSLAWYQQKPGKAPKLLIYLASTLASGVPSRFSGSGSGTDFTLTISSLQPEDFATYYCQSTDYTTSTHRNSFGTGTKVTVLGGGGGSGGGGSGGGGSGGGGSEVQLVESGGGLVQPGGSLRLSCAASGFSFSTTYYMCWVRQAPGKGLEWIGCTNTASSVRTYYATWAKGRFTISRDNSKNTVYLQMNSLRAEDTAVYYCARDMGFADYALNLWGQGTLVTVSSGGGGSGGGGSAFELTQSPSSLSASVGDRVTITCQASESINSRLAWYQQKPGQPPKLLIYDASDLTSGVPSRFSGSGSGTDFTLTISSLQPEDFATYYCQGYGGSSTTTFGCGTKLTVLGGGSGGSDIQMTQSPSSLSASVGDRVTITCQSSQSVFSNNYLAWFQQKPGQSPKRLIYSASTLASGVPSRFSGSGSGTDFTLTISSLQPEDFATYYCLGSYACSSADCYVFGTGTKVTVLG
notes: Heterodimer
In the case of B2, in test [4], the “Fold-diff Window (mean Met-5A EC50 / mean H226 EC50)” value was 1.7 fold; the “average mean H226 EC50, cell killing (LDH release)” value amounted to 0.0285 nM; the “average mean Met-5A EC50, cell killing (LDH release)” value was 0.0485 nM. Besides, in [5], the “Delta 0-50 ng/mL sMSLN (x-fold change in H226 killing potency)” value turned out to be 12 fold and the “Delta 0-500 ng/mL sMSLN (x-fold change in H226 killing potency)” value amounted to 85.1 fold. In addition, the dissociation constant Kd in test [6] worked out at 5.71 nM. Moreover, in test [7], the midpoint of the response, the EC50, lay at 1.08 nM and the “max. binding (MFI)” value was determined as 686000 MFI. Besides, in test [8], the EC50 amounted to 0.157 nM and the “max. binding (MFI)” value was determined as 14500 MFI. In [9], a half-maximal response (EC50) required 10.7 nM and the “max. binding (MFI)” value was determined as 198000 MFI. In test [10], this molecule returned an equilibrium dissociation constant (Kd) of 5.71 nM, a koff of 0.0016 s⁻¹ and an association rate constant (kon) of 280000 M⁻¹ s⁻¹.

B3: PRO2562 (MATCH4) (other)
chain 1: ALQMTQSPSSLSARVGDRVTIKCQASQSISNYLAWYQQKPGKPPKFLIYDASDLASGVPSRFSGSGSGRDFTLTISSLQPEDFATYYCQQVYDSNNVENVFGCGTKVTVLGGGGGSGGGGSGGGGSGGGGSQSQLVESGGGLVQPGGSLRLSCAVSGFSLSSYAMGWVRQAPGKCLEYIGYISKIGTTYYASWAKGRFTISKDNSKNTVYLQMNSLRAEDTAVYFCARGSSSGGYLDDGFDPWGQGTLVTVSSGGGGSGGGGSEVQLVESGGGLVQPGGSLRLSCAASGFSLSSYDMSWVRQAPGKGLAWIGASYASGPTYYASWAKGRFTISRDNSKNTVYLQMCSLRAEDTATYFCARGGWTGTSHSNIWGQGTLVTVSSGGGSGGGSGGGSGEVQLVESGGGLVQPGGSLRLSCAASGFSLSSYAMNWVRQAPGKCLEWIGHINAGDIAYYATWAKGRFTISRDNSKNTVYLQMNSLRAEDTAVYFCARGAGGFSTGPFKLWGQGTLVTVSS
chain 2: ALQMTQSPSSLSARVGDRVTIKCQASQSISNYLAWYQQKPGKPPKFLIYDASDLASGVPSRFSGSGSGRDFTLTISSLQPEDFATYYCQQVYDSNNVENVFGCGTKVTVLGGGGGSGGGGSGGGGSGGGGSQSQLVESGGGLVQPGGSLRLSCAVSGFSLSSYAMGWVRQAPGKCLEYIGYISKIGTTYYASWAKGRFTISKDNSKNTVYLQMNSLRAEDTAVYFCARGSSSGGYLDDGFDPWGQGTLVTVSSGGGGSGGGGSAFELTQSPSSLSASVGDRVTITCQASESINSRLAWYQQKPGQPPKLLIYDASDLTSGVPSRFSGSGSGTDFTLTISCLQPEDFATYYCQGYGGSSTTTFGCGTKLTVLGGGSGGSGGSGGSGDIQMTQSPSSLSASVGDRVTITCQSSQSVFSNNYLAWFQQKPGQSPKRLIYSASTLASGVPSRFSGSGSGTDFTLTISSLQPEDFATYYCLGSYACSSADCYVFGTGTKVTVLG
notes: Heterodimer
In the case of B3, the equilibrium dissociation constant (Kd) in test [6] was 6.45 nM; in [10], 6.45 nM; in [11], 1.39 nM. The figures for the EC50 in test [7], in [8] and in [9] were 0.447 nM, 0.0877 nM and 5.55 nM, respectively. Moreover, the “max. binding (MFI)” value in test [7] is 609000 MFI; in test [8], 12000 MFI; in [9] it was 148000 MFI. In addition, the dissociation rate constant (koff) stood at 0.00149 s⁻¹ in test [10] and 0.000571 s⁻¹ in test [11]. The kon stood at 231000 M⁻¹ s⁻¹ in test [10] and 410000 M⁻¹ s⁻¹ in test [11].

B4: anti-MSLN scFv PRO2306 (scFv)
scFv: ALQMTQSPSSLSARVGDRVTIKCQASQSISNYLAWYQQKPGKPPKFLIYDASDLASGVPSRFSGSGSGRDFTLTISSLQPEDFATYYCQQVYDSNNVENVFGTGTKVTVLGGGGGSGGGGSGGGGSGGGGSQSQLVESGGGLVQPGGSLRLSCAVSGFSLSSYAMGWVRQAPGKGLEYIGYISKIGTTYYASWAKGRFTISKDNSKNTVYLQMNSLRAEDTAVYFCARGSSSGGYLDDGFDPWGQGTLVTVSS
notes: also called 54-32-A07-sc06; PRO1925-S14R-T87R-T22K
Consider B4, for which, in test [1], a half-maximal effect (EC50) was put at 3.05 nM; the “rel. EC50 (EC50, Amatuximab/EC50, scFv)” value was found to be 0.026 ratio; the “rel. Maximum binding” value is 0.55 ratio. Moreover, in [2], the Kd is 0.322 nM, the koff was 0.000873 s⁻¹ and the kon came to 2.72e+06 M⁻¹ s⁻¹.

B5: anti-MSLN scFv PRO2309 (scFv)
scFv: ALQMTQSPSSLSARVGDRVTIKCQASQSISNYLAWYQQKPGKPPKFLIYDASDLASGVPSRFSGSGSGRDFTLTISSLQPEDFATYYCQQVYDSNNVENVFGCGTKVTVLGGGGGSGGGGSGGGGSGGGGSQSQLVESGGGLVQPGGSLRLSCAVSGFSLSSYAMGWVRQAPGKCLEYIGYISKIGTTYYASWAKGRFTISKDNSKNTVYLQMNSLRAEDTAVYFCARGSSSGGYLDDGFDPWGQGTLVTVSS
notes: VL/VH interdomain disulfide variant; also called 54-32-A07-sc09; PRO1925-S14R-T87R-T22K-DIS
As to B5, in test [1], the concentration giving a half-maximal response (EC50) worked out at 1.13 nM; the “rel. EC50 (EC50, Amatuximab/EC50, scFv)” value worked out at 0.07 ratio; the “rel. Maximum binding” value is 0.78 ratio. In addition, in [2], the Kd was 0.444 nM, the koff was 0.00138 s⁻¹ and the kon was 3.11e+06 M⁻¹ s⁻¹.

B6: anti-MSLN scFv PRO1925 (scFv)
scFv: ALQMTQSPSSLSASVGDRVTITCQASQSISNYLAWYQQKPGKPPKFLIYDASDLASGVSSRFSGSGSGTDFTLTISSLQPEDFATYYCQQVYDSNNVENVFGTGTKVTVLGGGGGSGGGGSGGGGSGGGGSQSQLVESGGGLVQPGGSLRLSCAVSGFSLSSYAMGWVRQAPGKGLEYIGYISKIGTTYYASWAKGRFTISKDNSKNTVYLQMNSLRAEDTAVYFCARGSSSGGYLDDGFDPWGQGTLVTVSS
notes: also called 54-32-A07-sc02
Consider B6, for which, in [1], it took 1.01 nM to reach a half-maximal effect (EC50); the “rel. EC50 (EC50, Amatuximab/EC50, scFv)” value was found to be 0.11 ratio; the “rel. Maximum binding” value worked out at 0.58 ratio. Moreover, in test [2], the dissociation constant (Kd) amounted to 0.488 nM, the koff was 0.000794 s⁻¹ and the kon was 1.63e+06 M⁻¹ s⁻¹. In [3], the concentration for half-maximal inhibition (IC50) amounted to 0.14 nM; the “Maximum inhibition at highest sample conc.” value came out at 99.2%; the “rel. IC50 (IC50, Amatuximab/IC50, scFv)” value came to 0.11 ratio.
